According to patent US20210324080A1 (JIANGSU HUAIYU PHARMACEUTICAL, published 2021):

T1: CTLA-4-hFc (immunogen A; hFc-labeled CTLA-4 extracellular domain protein) (human, UniProt P16410 36-161)
T1 construct: range 36-161; Made in HEK293 cells, purified on protein A; also called CLTA-4-hFc; CTLA-4 protein; not shown: human IgG Fc fragment (hFc) of the pCpC vector
T1 sequence (looked up): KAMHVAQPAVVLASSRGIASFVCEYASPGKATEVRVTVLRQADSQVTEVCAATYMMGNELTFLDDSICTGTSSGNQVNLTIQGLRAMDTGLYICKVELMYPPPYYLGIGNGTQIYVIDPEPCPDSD

T2: human CTLA-4 (Y201V), full length, on transfected cells (human, UniProt P16410 36-223)
T2 construct: whole, on cells; also called hCTLA-4; HEK293-hCTLA-4 (Y201V)
T2 sequence (looked up): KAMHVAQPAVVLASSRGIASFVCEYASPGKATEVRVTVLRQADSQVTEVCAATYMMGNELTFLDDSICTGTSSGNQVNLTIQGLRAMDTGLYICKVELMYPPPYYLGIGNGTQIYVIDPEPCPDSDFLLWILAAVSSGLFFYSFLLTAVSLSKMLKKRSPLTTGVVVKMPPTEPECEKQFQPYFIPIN

T3: CTLA-4 on human T lymphocytes (PBMC, CD3+ T cells) (human, UniProt P16410 36-223)
T3 sequence (looked up): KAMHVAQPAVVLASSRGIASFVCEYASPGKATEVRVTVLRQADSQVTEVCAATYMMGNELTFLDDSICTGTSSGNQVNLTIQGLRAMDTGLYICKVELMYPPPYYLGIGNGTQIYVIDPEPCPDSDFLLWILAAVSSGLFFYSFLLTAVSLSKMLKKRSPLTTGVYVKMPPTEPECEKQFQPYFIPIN


What was measured:
[1] = biological target: T1, CTLA-4-hFc (immunogen A; hFc-labeled …); test: competition ELISA: CTLA-4-hFc coated, antibody titrated, blocked ligand biotin-labeled B7.1-hFc, HRP-avidin, A450, inhibition (%)
Procedure: (§1) CTLA-4 extracellular domain protein (CTLA-4-hFc) was diluted with PBS to a final concentration of 1.0 μg/mL, and then added to a 96-well ELISA plate as 100 μl per well. The plate was covered with a plastic film and incubated overnight at 4° C. The plate was washed twice with plate washing solution [PBS containing 0.01% (v/v) Tween 20] on the next day, and added with blocking solution [PBS containing 0.01% (v/v) Tween 20 and 1% (w/w) BSA] and blocked at room temperature for 2 hours. […] After 2 hours, the plate was washed 3 times with a plate washing solution [PBS containing 0.01% (v/v) Tween 20]. HRP (horseradish peroxidase) labeled avidin diluent (purchased from Sigma) was added 100 microliters per well, and after the plate was incubated for 2 hours at 37° C., it was washed with plate washing solution [PBS containing 0.01% (v/v) Tween 20] for 3 times. […] TMB substrate was added to each well. After incubated at room temperature for 30 minutes, the plate was added with […] stop solution (1.0N HCl) to each well. An ELISA plate reader (SpectraMax 384plus, Molecular Device) was used to read the A450 nm value.

[2] = biological target: T1, CTLA-4-hFc (immunogen A; hFc-labeled …); test: ELISA, coated CTLA-4-hFc, competitor biotin-B7.1-hFc
Procedure: as §1

[3] = biological target: T2, human CTLA-4 (Y201V), full length, on …; test: FACS, CHOK1-hCTLA-4 cells
[4] = biological target: T1, CTLA-4-hFc (immunogen A; hFc-labeled …); test: competition ELISA: CTLA-4-hFc coated, antibody titrated, blocked ligand biotin-labeled B7.2-hFc, HRP-avidin, A450, inhibition (%)
Procedure: as §1

[5] = biological target: T4, monkey CTLA-4, full length, on transfected HEK293 cells (monkey); test: FACS, 293F-cCTLA-4 cells
T4 construct: whole, on cells; also called cCTLA-4; HEK293-cCTLA-4
Text: The pIRES plasmid with the monkey-derived CTLA-4 full-length gene was transfected into the HEK293 cell line to construct a HEK293 stable cell line containing monkey CTLA-4 (herein referred to as HEK293-cCTLA-4 stable cell line), wherein the database accession number of the monkey CTLA-4 nucleotide sequence is XM_005574014.1. The HEK293-hCTLA-4 stable cell line and HEK293-cCTLA-4 stable cell line were expanded in a T-75 cell culture flask to a 90% confluence. The medium was aspirated, and the cells were washed with HBSS buffer (Hanks Balanced Salt Solution, purchased from Invitrogen) twice, then treated with an enzyme-free cell dissociation fluid (Versene solution, purchased from Life technology) and the cells were collected. The cells were washed with HBSS buffer twice. After counted, the cells were diluted with HBSS buffer to 2×10⁶ cells per ml, added with 1% goat serum blocking solution, wherein the percentage was the mass percantage. Cells were incubated on ice for 30 minutes, then washed twice with HBSS buffer by centrifugation. The collected cells were suspended in the FACS buffer (HBSS containing 1% BSA, wherein the percentage was the mass percantage) to 2×10⁶ cells/ml, added as 100 microliters per well to a 96-well FACS reaction plate, added with 100 microliters per well of the purified CTLA-4 antibody sample to be tested, incubated on ice for 2 hours. The plate was washed twice with the FACS buffer by centrifugation, added with 100 microliters of fluorescent (Alexa 488)-labeled secondary antibodies (purchased from Invitrogen) per well, and incubated on ice for 1 hour. The plate was washed 3 times with FACS buffer by centrifugation, added with 100 μl fixative solution [4% (v/v) Paraformaldehyde] per well to suspend the cells. 10 minutes later, it was washed 2 times with FACS buffer by centrifugation. The cells were suspended with 100 microliters of FACS buffer, FACS (FACS Calibur, purchased from BD) was used for detection and the results were analyzed.

[6] = biological target: T3, CTLA-4 on human T lymphocytes (PBMC, …); test: cell-based or functional assay
[7] = biological target: T1, CTLA-4-hFc (immunogen A; hFc-labeled …); test: ELISA, coated CTLA-4-hFc, competitor biotin-B7.2-hFc
Procedure: as §1

Binder | IC50 (read off the curve) [1] | Inhibition rate (%) at 0.00091 nM [2] | Inhibition rate (%) at 0.091 nM [2] | Inhibition rate (%) at 0.274 nM [2] | Inhibition rate (%) at 0.823 nM [2] | Inhibition rate (%) at 2.5 nM [2] | Inhibition rate (%) at 7.4 nM [2] | Inhibition rate (%) at 22.2 nM [2] | Inhibition rate (%) at 66.7 nM [2] | MFI at 0.07 nM [3] | MFI at 0.67 nM [3] | MFI at 6.67 nM [3] | MFI at 66.67 nM [3] | IC50 (read off the curve) [4] | MFI at 0.000128 nM [5] | MFI at 0.0128 nM [5] | MFI at 0.064 nM [5] | MFI at 0.32 nM [5] | MFI at 1.6 nM [5] | MFI at 8 nM [5] | also measured
97A8D1 (chimeric antibody purified from hybridoma supernatant) (antibody, V domains shown, also called mAb49; mAb049) VH: QVQLVESGGGVVQPGRSLRLSCVASGFTFNNYGMNWVRQAPGKGLEWVAVIWYGGRNKFYADSVKGRFTISRDNSKNTLYLEMNSLRAEDTAVYYCARADWGGWFDPWGQGTLVTVSS VL: EIVLTQSPGTLSLSPGERATLSCRASQSVSSTYLAWYQQKPGQAPRLLIHGAFSRATGIPDRFSGSGSGPDFTLTISRLEPEDFAVYYCQQYGTSPFTFGPGTKVDIK | ~0.5 nM | 0% | -1% | 4% | 78% | 93% | 91% | 91% | 97% | 20 | 116 | 395 | 617 | ~0.5 nM | 2.4 | 23.1 | 67.2 | 225 | 513 | 754 | MFI at 40 nM [5]: 910; MFI at 200 nM [5]: 831; IL-2 (pg/mL) at 0.016 ug/mL, SEB PBMC test [6]: 336 pg/mL; IL-2 (pg/mL) at 0.08 ug/mL, SEB PBMC test [6]: 742 pg/mL; IL-2 (pg/mL) at 2 ug/mL, SEB PBMC test [6]: 4950 pg/mL; IL-2 (pg/mL) at 4 ug/mL (so in the source), SEB PBMC test [6]: 1520 pg/mL; IL-2 (pg/mL) at 10 ug/mL, SEB PBMC test [6]: 7980 pg/mL; Inhibition rate (%) at 0.00091 nM [7]: 0%; Inhibition rate (%) at 0.091 nM [7]: -21%; Inhibition rate (%) at 0.274 nM [7]: 6%; Inhibition rate (%) at 0.823 nM [7]: 76%; Inhibition rate (%) at 2.5 nM [7]: 91%; Inhibition rate (%) at 7.4 nM [7]: 95%; Inhibition rate (%) at 22.2 nM [7]: 94%; Inhibition rate (%) at 66.7 nM [7]: 95%
92C8B6 (chimeric antibody purified from hybridoma supernatant) (antibody, V domains shown, also called mAb42; mAb042) VH: QVQLVESGGGVVQPGRSLRLSCAASGFTFSNFGMHWVRQAPGKGLEWVAVIWYDGSNKYYADSVKGRFTISRDNSKNTLFLQMNGLRAEDTAVYYCAKGGILMAGTLDYWGQGTLVTVSS VL: DIQMTQSPSSLSASVGDRVTITCRASQSVSTYLNWYQQKPGKAPKLLIYAASSFQSGVPSRFSGSGSGTDFTLTISSLQPEDFATYFCQQSYSTPFTFGPGTKVDIK | ~0.2 nM | 0% | 8% | 55% | 93% | 94% | 97% | 96% | 97% | 29 | 154 | 420 | 603 | ~0.2 nM | 2.3 | 22.2 | 67.7 | 208 | 465 | 722 | MFI at 40 nM [5]: 800; MFI at 200 nM [5]: 711; IL-2 (pg/mL) at 0.016 ug/mL, SEB PBMC test [6]: 355 pg/mL; IL-2 (pg/mL) at 0.08 ug/mL, SEB PBMC test [6]: 830 pg/mL; IL-2 (pg/mL) at 2 ug/mL, SEB PBMC test [6]: 3740 pg/mL; IL-2 (pg/mL) at 4 ug/mL (so in the source), SEB PBMC test [6]: 1420 pg/mL; IL-2 (pg/mL) at 10 ug/mL, SEB PBMC test [6]: 6120 pg/mL; Inhibition rate (%) at 0.00091 nM [7]: 0%; Inhibition rate (%) at 0.091 nM [7]: 23%; Inhibition rate (%) at 0.274 nM [7]: 60%; Inhibition rate (%) at 0.823 nM [7]: 90%; Inhibition rate (%) at 2.5 nM [7]: 92%; Inhibition rate (%) at 7.4 nM [7]: 95%; Inhibition rate (%) at 22.2 nM [7]: 94%; Inhibition rate (%) at 66.7 nM [7]: 95%
31C12F3 (chimeric antibody purified from hybridoma supernatant) (antibody, V domains shown, also called mAb010) VH: QVQLVESGGGVVQPGRSLILSCAASGFTFSSYGMHWVRQAPGKGLEWVAVVWYDGSNKYYADSVKGRFTISRDNSKNTLYLQMSSLRAEDTAVYYCARGGIVVPGLFEYWGQGSLVTVSS VL: DIQMTQSPSSLSASVGDRVAITCRTSQSISNLLNWYQQKPGKAPELLIYAPSSFQSGVPSRFRGSGSGTDFTLTISSLQPEDFATYYCQQSYSTPFTFGPGTKVDIK | ~0.4 nM | 0% | 1.7% | 25.7% | 72.2% | 87.7% | 89.6% | 93.6% | 94.4% | 27.6 | 95 | 386 | 469 | ~0.5 nM | 2.4 | 34.3 | 97.7 | 261 | 455 | 654 | MFI at 40 nM [5]: 712; MFI at 200 nM [5]: 668; Inhibition rate (%) at 0.00091 nM [7]: 0%; Inhibition rate (%) at 0.091 nM [7]: -8.8%; Inhibition rate (%) at 0.274 nM [7]: 17.1%; Inhibition rate (%) at 0.823 nM [7]: 60.2%; Inhibition rate (%) at 2.5 nM [7]: 83.6%; Inhibition rate (%) at 7.4 nM [7]: 89.9%; Inhibition rate (%) at 22.2 nM [7]: 92.1%; Inhibition rate (%) at 66.7 nM [7]: 92.8%
